Data published in a protein production outcome set (Wang et al. 2014).

Test: label from the status in PepcDB records
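Note: failed if final PepcDB status was selected cloned or expressed and not failed if soluble or beyond.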

Row | Sequence | protein production
1 | AELQMLLEEEIPSGKRALIESYQNLTRVADYCENNYIQATDKRKALEETKAYTTQSLASVAYQINALANNVLQLLDIQASQLRRMESSINHISQTVDIHKEKVARREIGILTTNKNTSRTHKIIAPANMERPVRYIRKPIDYTVLDDVGHGVKWLKAKHGNNQPARTGTLSRTN | failed
2 | AEPTLYGRYENIKVLEIGQTFKAKMDTGALTASLSAKDIELFQRDGDDWVRFRLATKGADDKVYEHKVSRISKIKGRAEGDDEDDEGINPAKRPVVDLELCLGNKKRTVEVNLVDRSHFNFPLLIGAKALREFGAAINPARRYTADEP | failed
3 | AFAVLTTAGSRPVLSFLWVEPAARRQGLARELLMALAQQFPGIGTSVTVPETFTPLFAAAGYTPLSLQQYEMTMDLADAKSA | failed
4 | AHSSLGAPVHLWGTEEVAAWLEHLSLCEYKDIFTRHDIRGSELLHLERRDLKDLGVTKVGHMKRILCGIKELSRSAPAVEA | failed
5 | AIAAADISESSGADCKGDPRNSAKLDADYPLRVLYCGVCSLPTEYCEYMPDVAKCRQWLEKNFPNEFAKLTVENSPKQEAGISEGQGTAGEEEEKKKQKRGGRGQIKQKKKTVPQKVTIAKIPRAKKKYVTRVCGLATFEIDLKEAQRFFAQKFSCGASVTGEDEIIIQGDFTDDIIDVIQEKWPEVDDDSIEDLGEVKK | failed
6 | AIAAELGLNEHHQNEVINYMRFARSKRGLRLKTVDSCFQDLKESRLVEDTFTIDEVSEVLNGLQAVVHSEVESELINTAYTNVLLLRQLFAQAEKWYLKLQTDISELENQELLEQVAEFEKAEITSSNKKPILDVTKPKLAPLNEGGTAELLNEEILRLQEENEKLKSRLKTIEIQATNALDEKSKLEKALQDLQLDQGNQKDFIKAQDLSNLENTVAALKSEFQKTLNDKTENQKSLEENLATAKHDLLRVREQLHMAEKELEKKFQQTAAYRNMKEILTKKNDQIKDLRKRLAQYEPED | failed
7 | AIAAEMKTYSHRTMPSACTLVMCSSVESGLPGRDGRDGREGPRGEKGDPGLPGAAGQAGMPGQAGPVGPKGDNGSVGEPGPKGDTGPS | failed
8 | AIAEEDEFIGEKTFQRYCAEFIKHSQQIGDSWEWRPSKDCSDGYMCKIHFQIKNGSVMSHLGASTHGQTCLPMEEAFELPLDDCEVIETAAASEVIKYEYHVLYSCSYQVPVLYFRASFLDGRPLTLKDIWEGVHECYKMRLLQGPWDTITQQEHPILGQPFFVLHPCKTNEFMTPVLKNSQKINKNVNYITSWLSIVGPVVGLNLPLSYAKATSQDERNVP | failed
9 | AIAITGETEPACVEDASQLAEQRNGAPVMEAGCAAVPVEANATKRGYWRQRTLHSWFIGRKPQRTCIAVDIDEVLAFFVPELCAFHNKRYGTRLQATDFHSYRFAEVWGGTDTDAIRKVHEFFRTPAFQELQPIPGAKQVLQSRLARFRFVVVTSRQLVIEQETRAWLDKHFSGIFEAIYLGNQWALHPNGEHGTGVGSAAQEPQRLFANRRRKSQVCKACGAAVLIDDLPHNLLDCSENGVFGVLFDFQGQYGWSKSPAFESKDIAVVHSWEAVGELLDRL | failed
10 | AIANSSVSTHGTGDCPVNCTKSEDFAPSKLGTKEYWDGAYKRELQTYKDIGDVGEIWFGEESMHRVIRWMEAQNISENAAILDIGTGNGMFLVELARHGFSNLTGIDYSKAALELTTNILVEEGLKNINIQVEDFLNPSTELKGFDVCIDKGTFDAISLNPEDREEAKKHYVTSLRAVMRPNGFFIITSCNWTKEQLLEIFKPGFELVRELPTPNFQFGGVTGNSVTALVFKQTD | failed
11 | AIATVYRLPASISFDEVIQRVSRENVGAVVRCAVGEEQLVVATSHRQEAWTVLKSFLINRCVPMEAREEEPSLGLEKPQYWDRLPANGRTPMERSDHGRGLEFQKSSQDDPVFEKECLLSGYGAQAPSQTGTESLQIPQVALLEEPVPPAYLKKAENAAVSFCGLVRKDRLSSDRVVSALVYESYREMAMLYIHRIAAEQNLHMFVHTVAGSVPVGSVSVLVTGPSVESVRLALEALKRYVPIWKEDVSVPCI | failed
12 | AIREREMKVLNIQVTSSCNYACGMCPFHGDGYSGEYFDERPTIRRDMSLDEIKLILEKASMEGFEWIDLTPNGEFFTHKQWYQILSLIKEFGLKIMITSNGGLLGEEDIKRACEVGVDHIVISVDSLSYESYKKIRKPATKLAFERAIHAPLYFKKYG | failed
13 | AKAPQKKHKVLLQQFNTGDERAQKRQPIRGSDEVLFKVYCMDHTYTTIRVPVATSVKEVISAVADKLGSGEGLIIVKMSSGGEKVVLKPNDVSVFTTLTINGRLFACPREQFDSLTPLPEQEGPTVGTVGTFELMSSKDLAYQMTIYDWELFNCVHELELIYHTFGRHNFKKTTANLDLFLRRFNEIQFWVVTEICLCSQLSKRVQLLKKFIKIAAHCKEYKNLNSFFAIVMGLSNVAVSRLALTWEKLPSKFKKFYAEFESLMDPSRNHRAYRLTVAKLEPPLIPFMPLLIKDMTFTHEGNKTFIDNLVNFEKMRMIANTARTVRYYRSQPFNPDAAQANKNHQDVRSYVRQLNVIDNQRTLSQMSHRLEPRRP | failed
14 | AKDALLLWCQMKTAGYPNVNVHNFTTSWRDGLAFNAIVHKHRPDLLDFESLKKCNAHYNLQNAFNLAEKELGLTKLLDPEDVNVDQPDEKSIITYVATYYHYFSKMKALAVEGK | not failed
15 | ALPPEPKEENAEPVSKLRIRTPSGEFLERRFLASNKLQIVFDFVASKGFPWDEYKLLSTFPRRDVTQLDPNKSLLEVKLFPQETLFLEAKE | failed
16 | ANFADSGKSLPPSMTSVPVTPVAAHTSSTPLTDIAADTTANDAPAIAAEFGQPDWPEEFGRKITWLATQRMQAAELKLHPAHLGPIEISLQLSDDQRLTAQFISHHPAVREAIEANLPRLREIMAENGITLADTSVSADT | not failed
17 | ANGTVATAAIQPKKVKGVGFGDIFKDKPIKLRPRSIEVENDFLPVEKTIGKKLPATTATPDSSKTEMDSRTKSKDYCKVIFPYEAQNDDELTIKEGDIVTLINKDCIDVGWWEGELNGRRGVFPDNFVKLLPPDFEKEGNR | failed
18 | ANMHIFENPSALAEALADDVGARLAAAIAARGTASLAVSGGSTPKAFFRSLSRRELDWSKVTVTLVDERFVPPENDRSNHRLVADNLLKDGAAEARFVPLYQAAETAEAAAAIASGRTASLGAPLDVVVLGMGTDGHTASFFPGGTRLEEALDPTTPRGVITMEAEGAGEPRLTFTFSSLQDAGYLVLHIEGSGKKEVLAQAEASGDEAEMPIRAMLRRAASPLQIYWAP | failed

Row | Sequence | protein production
19 | APFFEMKLKHYKIFEGMPVTFTCRVAGNPKPKIYWFKDGKQISPKSDHYTIQRDLDGTCSLHTTASTLDDDGNYTIMAANPQGRISCTGRLMVQAVN | not failed
20 | APGTLVLAGTPIGDITDAPPRLAQELAGADVVAAEDTRRLRRLTQALGVQPAGRVVSYFEGNEAARTPELVEALLDGSRVLLVTDAGMPSVSDPGYRLVAAAVAKDIRVTAVPGPS | failed
21 | AQDLYQNLESKVAQKTREVEEQNLRLKTLYDMTSFLHQQRALDETCQGFIRRLMQLTGADAANARLVDPERGKLDQIAQQGLPAEMALNEECIPDDACHCGEAVQQPFAVLRHIGELEGEEIRHCRKAGFASIAVFHIRNQREDVGIFTLYFRQKRVLSMAEQMLIETLGQHLGVAIEN | failed
22 | AQGQRRAPLSVVFTEPQVASVGLSLRQIEDLYADQDAANYVVGQVSFEGQGRSRVMGKNKGLLNVYADRTSGEFLGAEMFGPAAEHIGHLLAWARQQQMTVQAMLTMPFYHPVIEEGLRTALRDAQQKLA | not failed
23 | AQGVGVEAILLLRRECQASHEDALHLGLAEHAPVIELQTLRKLDGQAVSLIFHRYSAVYHELLADYQGGSVRQYLAECGLPLSRAQSLIGARLPSREEAGLLLMPRHMPALTVLTVSCDGAGQPVELSRSVSRSDRFQ | failed
24 | AQKKTQKTYIPWSNGKLVVSEEGRYLKHENGTPFFWLGETGWLLPERLNRDEAEYYLEQCKRRGYNVIQVQTLNNVPSMNIYGQYSMTDGYNFKNINQKGVYGYWDHMDYIIRTAAKKGLYIGMVCIWGSPVSHGEMNVDQAKAYGKFLAERYKDEPNIIWFIGGDIRGDVKTAEWEALATSIKAIDKNHLMTFHPRGRTTSATWFNNAPWLDFNMFQSGHRRYGQRFGDGDYPIEENTEEDNWRFVERSMAMKPMKPVIDGEPIYEEIPHGLHDENELLWKDYDVRRYAYWSVFAGSFGHTYGHNSIMQFIKPGVGGAYGAKKPWYDALNDPGYNQMKYLKNLMLTFPFFERVPDQSVIAGQNGERYDRAIATRGNDYLMVYNYTGRPMEVDFSKISGAKKNAWWYTTKDGKLEYIGEFDNGVHKFQHDSGYSSGNDHVLIVVDSSKDYVKKDCYQIDTHE | not failed
25 | ARNGDDCPLGPGRCCRLHTVRASLEDLGWADWVLSPREVQVTMCIGACPSQFRAANMHAQIKTSLHRLKPDTEPAPCCVPASYNPMVLIQKTDTGVSLQTYDDLLAKDCHCI | failed
26 | ARQRFIYIARHRSENIAYYAQALKIDGMVLKAESRRFYPLAEEASQLIGFTDVDDQQGSEGLERSFNSLLVGKNGKQIIRKDARGNVIENIRDEKQYDPQDVMLSID | failed
27 | ASEGEKHITVTVIHGDQTENVFEFDTDAKYLGEVLESENLVDGESGEYGLFITTVDEETADDSKQQWWCITKGGEQVNTSADQTPVSDGDAFELTLKEGY | not failed
28 | ATRRYYLGAVELSWDYMQSDLGELPVDARFPPRVPKSFPFNTSVVYKKTLFVEFTDHLFNIAKPRPPWMGLLGPTIQAEVYDTVV | failed
29 | AVYLDCRDLQRTWEVIFNLFEPELQEFTRKVPINHIRQLVEHKHAKPVFSSPIVEGETVMVSCQFTCMEKTIKVYGFGSNKDQAKLSAAKHALQQLSKCDA | failed
30 | CEGGVDMQQSQVQLQCPLTPPRGLQVSIQGEAVAVRPGEDVLFVVRQEQGDVLTTKYQVDLGDGFKAMYVNLTLTGEPIRHRYESPGIYRVSVRAENTAGHDEAVLFVQV | not failed
31 | CFVTRIRLLDSNVIECTLSVESTGQECLEAVAQRLELRETHYFGLWFLSKSQQARWVELEKPLKKHLDKFANEPLLFFGVM | failed
32 | DDDEPGGKGAMYEVTIEQSGDFRSFIKSVVVVANGTQLKDGATGESLASPVILSDEELAVEKVTLSTTGKAIEFAVSGGVVDGEDGVVNEPMQWVVTVYKNGKEIEKKSLVFRDGKEISTDDLNLYYN | not failed
33 | DDFEDSLEYLEPLDHDAYIVRLNFTGENTTEPIISYMTKTHNIDVNILEADIKNTKNGSLGFLVIHIPHISEEHFKQFKHNLHEQHVNVEVLKHG | not failed
34 | DDGVVAAAAFDADRTDPDTLCVRYITVRQDRQGDRLGARLLRFVRERATERGFEHVSIGVNNPFSYQAAYRAGFCFSG | failed
35 | DDLIFYKGVDGRYLGANKAFCDFFGKESMEGLSDADILDAEQLRLTQKSDEEVVRFRKNIRLEYGGGHPLRGRFFFSITKSPILLRGKVVGILGIARD | failed
36 | DDPEQFEVIKQQKEIIEHGIELFNKKPKRGIQFLQEQGMLGTSVEDIAQFLHQEERLDSTQVGDFLGDSARFNKEVMYAYVDQLDFCEKEFVSALRTFLEGFRLPGEAQKIDRLMEKFAARYIECNQGQTLFASADTAYVLAYSIIMLTTDLHSPQVKNKMTKEQYIKMNRGINDSKD | failed
